The results in this text go back to US20140087995A1 (published 2014).

Sequences and labels used below:
B1: N^ε1-[(4S)-4-carboxy-4-(19-carboxynonadecanoylamino)butanoyl]-[His14,Arg17,Pro21,Pro27,Arg34]-h-amylin (peptide)
peptide: K([γGlu-C20 diacid])CNTATCATQRLAHFLRHSSPNFGAIPSSTNVGRNTY-NH2
modifications: disulfide 2-7; N-terminus assumed
SMILES: CC[C@H](C)[C@H](NC(=O)[C@H](C)NC(=O)CNC(=O)[C@H](Cc1ccccc1)NC(=O)[C@H](CC(N)=O)NC(=O)[C@@H]1CCCN1C(=O)[C@H](CO)NC(=O)[C@H](CO)NC(=O)[C@H](Cc1c[nH]cn1)NC(=O)[C@H](CCCNC(=N)N)NC(=O)[C@H](CC(C)C)NC(=O)[C@H](Cc1ccccc1)NC(=O)[C@H](Cc1c[nH]cn1)NC(=O)[C@H](C)NC(=O)[C@H](CC(C)C)NC(=O)[C@H](CCCNC(=N)N)NC(=O)[C@H](CCC(N)=O)NC(=O)[C@@H](NC(=O)[C@H](C)NC(=O)[C@@H]1CSSC[C@H](NC(=O)[C@@H](N)CCCCNC(=O)CC[C@H](NC(=O)CCCCCCCCCCCCCCCCCCC(=O)O)C(=O)O)C(=O)N[C@@H](CC(N)=O)C(=O)N[C@@H]([C@@H](C)O)C(=O)N[C@@H](C)C(=O)N[C@@H]([C@@H](C)O)C(=O)N1)[C@@H](C)O)C(=O)N1CCC[C@H]1C(=O)N[C@@H](CO)C(=O)N[C@@H](CO)C(=O)N[C@H](C(=O)N[C@@H](CC(N)=O)C(=O)N[C@H](C(=O)NCC(=O)N[C@@H](CCCNC(=N)N)C(=O)N[C@@H](CC(N)=O)C(=O)N[C@H](C(=O)N[C@@H](Cc1ccc(O)cc1)C(N)=O)[C@@H](C)O)C(C)C)[C@@H](C)O
notes: also called compound 85
B2: N^ε1-[(4S)-4-carboxy-4-(19-carboxynonadecanoylamino)butanoyl]-[His14,Arg17,Pro21,Pro27,Pro31,Pro34]-h-amylin (peptide)
peptide: K([γGlu-C20 diacid])CNTATCATQRLAHFLRHSSPNFGAIPSSTPVGPNTY-NH2
modifications: disulfide 2-7; N-terminus assumed
SMILES: CC[C@H](C)[C@H](NC(=O)[C@H](C)NC(=O)CNC(=O)[C@H](Cc1ccccc1)NC(=O)[C@H](CC(N)=O)NC(=O)[C@@H]1CCCN1C(=O)[C@H](CO)NC(=O)[C@H](CO)NC(=O)[C@H](Cc1c[nH]cn1)NC(=O)[C@H](CCCNC(=N)N)NC(=O)[C@H](CC(C)C)NC(=O)[C@H](Cc1ccccc1)NC(=O)[C@H](Cc1c[nH]cn1)NC(=O)[C@H](C)NC(=O)[C@H](CC(C)C)NC(=O)[C@H](CCCNC(=N)N)NC(=O)[C@H](CCC(N)=O)NC(=O)[C@@H](NC(=O)[C@H](C)NC(=O)[C@@H]1CSSC[C@H](NC(=O)[C@@H](N)CCCCNC(=O)CC[C@H](NC(=O)CCCCCCCCCCCCCCCCCCC(=O)O)C(=O)O)C(=O)N[C@@H](CC(N)=O)C(=O)N[C@@H]([C@@H](C)O)C(=O)N[C@@H](C)C(=O)N[C@@H]([C@@H](C)O)C(=O)N1)[C@@H](C)O)C(=O)N1CCC[C@H]1C(=O)N[C@@H](CO)C(=O)N[C@@H](CO)C(=O)N[C@H](C(=O)N1CCC[C@H]1C(=O)N[C@H](C(=O)NCC(=O)N1CCC[C@H]1C(=O)N[C@@H](CC(N)=O)C(=O)N[C@H](C(=O)N[C@@H](Cc1ccc(O)cc1)C(N)=O)[C@@H](C)O)C(C)C)[C@@H](C)O
B3: N^ε1-[(4S)-4-carboxy-4-[[(4S)-4-carboxy-4-(19-carboxynonadecanoylamino)butanoyl]amino]butanoyl]-[Glu14,Arg17,Pro21,Pro27,Arg35]-h-amylin (peptide)
peptide: K([γGlu-γGlu-C20 diacid])CNTATCATQRLAEFLRHSSPNFGAIPSSTNVGSRTY-NH2
modifications: disulfide 2-7; N-terminus assumed
SMILES: CC[C@H](C)[C@H](NC(=O)[C@H](C)NC(=O)CNC(=O)[C@H](Cc1ccccc1)NC(=O)[C@H](CC(N)=O)NC(=O)[C@@H]1CCCN1C(=O)[C@H](CO)NC(=O)[C@H](CO)NC(=O)[C@H](Cc1c[nH]cn1)NC(=O)[C@H](CCCNC(=N)N)NC(=O)[C@H](CC(C)C)NC(=O)[C@H](Cc1ccccc1)NC(=O)[C@H](CCC(=O)O)NC(=O)[C@H](C)NC(=O)[C@H](CC(C)C)NC(=O)[C@H](CCCNC(=N)N)NC(=O)[C@H](CCC(N)=O)NC(=O)[C@@H](NC(=O)[C@H](C)NC(=O)[C@@H]1CSSC[C@H](NC(=O)[C@@H](N)CCCCNC(=O)CC[C@H](NC(=O)CC[C@H](NC(=O)CCCCCCCCCCCCCCCCCCC(=O)O)C(=O)O)C(=O)O)C(=O)N[C@@H](CC(N)=O)C(=O)N[C@@H]([C@@H](C)O)C(=O)N[C@@H](C)C(=O)N[C@@H]([C@@H](C)O)C(=O)N1)[C@@H](C)O)C(=O)N1CCC[C@H]1C(=O)N[C@@H](CO)C(=O)N[C@@H](CO)C(=O)N[C@H](C(=O)N[C@@H](CC(N)=O)C(=O)N[C@H](C(=O)NCC(=O)N[C@@H](CO)C(=O)N[C@@H](CCCNC(=N)N)C(=O)N[C@H](C(=O)N[C@@H](Cc1ccc(O)cc1)C(N)=O)[C@@H](C)O)C(C)C)[C@@H](C)O
notes: also called compound 89
B4: N^ε1-[(4S)-4-carboxy-4-(19-carboxynonadecanoylamino)butanoyl]-[His14,Arg17,Pro21,Pro27,His34]-h-amylin (peptide)
peptide: K([γGlu-C20 diacid])CNTATCATQRLAHFLRHSSPNFGAIPSSTNVGHNTY-NH2
modifications: disulfide 2-7; N-terminus assumed
SMILES: CC[C@H](C)[C@H](NC(=O)[C@H](C)NC(=O)CNC(=O)[C@H](Cc1ccccc1)NC(=O)[C@H](CC(N)=O)NC(=O)[C@@H]1CCCN1C(=O)[C@H](CO)NC(=O)[C@H](CO)NC(=O)[C@H](Cc1c[nH]cn1)NC(=O)[C@H](CCCNC(=N)N)NC(=O)[C@H](CC(C)C)NC(=O)[C@H](Cc1ccccc1)NC(=O)[C@H](Cc1c[nH]cn1)NC(=O)[C@H](C)NC(=O)[C@H](CC(C)C)NC(=O)[C@H](CCCNC(=N)N)NC(=O)[C@H](CCC(N)=O)NC(=O)[C@@H](NC(=O)[C@H](C)NC(=O)[C@@H]1CSSC[C@H](NC(=O)[C@@H](N)CCCCNC(=O)CC[C@H](NC(=O)CCCCCCCCCCCCCCCCCCC(=O)O)C(=O)O)C(=O)N[C@@H](CC(N)=O)C(=O)N[C@@H]([C@@H](C)O)C(=O)N[C@@H](C)C(=O)N[C@@H]([C@@H](C)O)C(=O)N1)[C@@H](C)O)C(=O)N1CCC[C@H]1C(=O)N[C@@H](CO)C(=O)N[C@@H](CO)C(=O)N[C@H](C(=O)N[C@@H](CC(N)=O)C(=O)N[C@H](C(=O)NCC(=O)N[C@@H](Cc1c[nH]cn1)C(=O)N[C@@H](CC(N)=O)C(=O)N[C@H](C(=O)N[C@@H](Cc1ccc(O)cc1)C(N)=O)[C@@H](C)O)C(C)C)[C@@H](C)O
notes: also called compound 81
B5: N^ε1-[(4S)-4-carboxy-4-[[(4S)-4-carboxy-4-(19-carboxynonadecanoylamino)butanoyl]amino]butanoyl]-[Arg17,Pro21,Pro27,His34]-h-amylin (peptide)
peptide: K([γGlu-γGlu-C20 diacid])CNTATCATQRLANFLRHSSPNFGAIPSSTNVGHNTY-NH2
modifications: disulfide 2-7; N-terminus assumed
SMILES: CC[C@H](C)[C@H](NC(=O)[C@H](C)NC(=O)CNC(=O)[C@H](Cc1ccccc1)NC(=O)[C@H](CC(N)=O)NC(=O)[C@@H]1CCCN1C(=O)[C@H](CO)NC(=O)[C@H](CO)NC(=O)[C@H](Cc1c[nH]cn1)NC(=O)[C@H](CCCNC(=N)N)NC(=O)[C@H](CC(C)C)NC(=O)[C@H](Cc1ccccc1)NC(=O)[C@H](CC(N)=O)NC(=O)[C@H](C)NC(=O)[C@H](CC(C)C)NC(=O)[C@H](CCCNC(=N)N)NC(=O)[C@H](CCC(N)=O)NC(=O)[C@@H](NC(=O)[C@H](C)NC(=O)[C@@H]1CSSC[C@H](NC(=O)[C@@H](N)CCCCNC(=O)CC[C@H](NC(=O)CC[C@H](NC(=O)CCCCCCCCCCCCCCCCCCC(=O)O)C(=O)O)C(=O)O)C(=O)N[C@@H](CC(N)=O)C(=O)N[C@@H]([C@@H](C)O)C(=O)N[C@@H](C)C(=O)N[C@@H]([C@@H](C)O)C(=O)N1)[C@@H](C)O)C(=O)N1CCC[C@H]1C(=O)N[C@@H](CO)C(=O)N[C@@H](CO)C(=O)N[C@H](C(=O)N[C@@H](CC(N)=O)C(=O)N[C@H](C(=O)NCC(=O)N[C@@H](Cc1c[nH]cn1)C(=O)N[C@@H](CC(N)=O)C(=O)N[C@H](C(=O)N[C@@H](Cc1ccc(O)cc1)C(N)=O)[C@@H](C)O)C(C)C)[C@@H](C)O
notes: also called compound 86
B6: N^ε1-[(4S)-4-carboxy-4-[[(4S)-4-carboxy-4-(19-carboxynonadecanoylamino)butanoyl]amino]butanoyl]-[Glu14,Arg17,Pro21,Pro27,Arg34]-h-amylin (peptide)
peptide: K([γGlu-γGlu-C20 diacid])CNTATCATQRLAEFLRHSSPNFGAIPSSTNVGRNTY-NH2
modifications: disulfide 2-7; N-terminus assumed
SMILES: CC[C@H](C)[C@H](NC(=O)[C@H](C)NC(=O)CNC(=O)[C@H](Cc1ccccc1)NC(=O)[C@H](CC(N)=O)NC(=O)[C@@H]1CCCN1C(=O)[C@H](CO)NC(=O)[C@H](CO)NC(=O)[C@H](Cc1c[nH]cn1)NC(=O)[C@H](CCCNC(=N)N)NC(=O)[C@H](CC(C)C)NC(=O)[C@H](Cc1ccccc1)NC(=O)[C@H](CCC(=O)O)NC(=O)[C@H](C)NC(=O)[C@H](CC(C)C)NC(=O)[C@H](CCCNC(=N)N)NC(=O)[C@H](CCC(N)=O)NC(=O)[C@@H](NC(=O)[C@H](C)NC(=O)[C@@H]1CSSC[C@H](NC(=O)[C@@H](N)CCCCNC(=O)CC[C@H](NC(=O)CC[C@H](NC(=O)CCCCCCCCCCCCCCCCCCC(=O)O)C(=O)O)C(=O)O)C(=O)N[C@@H](CC(N)=O)C(=O)N[C@@H]([C@@H](C)O)C(=O)N[C@@H](C)C(=O)N[C@@H]([C@@H](C)O)C(=O)N1)[C@@H](C)O)C(=O)N1CCC[C@H]1C(=O)N[C@@H](CO)C(=O)N[C@@H](CO)C(=O)N[C@H](C(=O)N[C@@H](CC(N)=O)C(=O)N[C@H](C(=O)NCC(=O)N[C@@H](CCCNC(=N)N)C(=O)N[C@@H](CC(N)=O)C(=O)N[C@H](C(=O)N[C@@H](Cc1ccc(O)cc1)C(N)=O)[C@@H](C)O)C(C)C)[C@@H](C)O
notes: also called compound 88

Numbered stars: 1 amine (or outer) side, 2 acyl side, 3 side chain; on linkers, the order of the positions; unused ones are H or OH. Bridge positions count the residues as written; N and C are the ends. Side chains are listed from the residue outwards. Ends that are not written are not given here. * marks the point of attachment. C20 diacid = O=C(O)CCCCCCCCCCCCCCCCCCC(=O)*; γGlu = O=C(O)[C@H](CCC(=O)[*:2])N[*:1]

For one test, the target named is T1, human amylin 3(a) receptor (human calcitonin receptor co-expressed with RAMP-3) (human, UniProt P30988 25-474; O60896 24-148, limits assumed).
T1 sequence (looked up) 1: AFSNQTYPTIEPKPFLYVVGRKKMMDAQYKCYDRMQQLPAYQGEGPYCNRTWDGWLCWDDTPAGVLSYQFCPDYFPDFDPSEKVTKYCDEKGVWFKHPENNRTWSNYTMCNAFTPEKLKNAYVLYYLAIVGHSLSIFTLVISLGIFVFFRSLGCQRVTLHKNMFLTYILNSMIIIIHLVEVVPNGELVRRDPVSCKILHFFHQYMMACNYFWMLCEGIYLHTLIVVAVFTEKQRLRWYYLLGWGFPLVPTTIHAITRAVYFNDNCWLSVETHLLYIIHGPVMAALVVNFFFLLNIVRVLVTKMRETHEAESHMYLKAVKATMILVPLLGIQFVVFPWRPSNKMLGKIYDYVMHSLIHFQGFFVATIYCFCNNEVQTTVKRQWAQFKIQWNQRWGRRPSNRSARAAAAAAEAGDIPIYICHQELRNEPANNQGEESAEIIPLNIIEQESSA
T1 sequence (looked up) 2: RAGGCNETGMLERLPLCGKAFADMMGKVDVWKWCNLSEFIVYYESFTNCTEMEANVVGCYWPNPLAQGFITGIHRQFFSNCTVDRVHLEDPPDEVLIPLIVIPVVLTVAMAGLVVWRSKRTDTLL
Briefly: cell-based or functional assay.
Regarding B1, the “hAmylin-R funct. EC50” value amounted to 0.146 nM.
For B2, the “hAmylin-R funct. EC50” value came out at 0.071 nM.
Regarding B3, the “hAmylin-R funct. EC50” value was found to be 0.404 nM.
The same measure, in the same setting: under B4 stands 0.13 nM; under B5, 0.298 nM.
Still for that read-out and setting: in the case of B6 it was 0.773 nM.

The target in a further test is T2, human calcitonin receptor (human, UniProt P30988 25-474).
T2 sequence (looked up): T1 sequence (looked up) 1
Briefly: cell-based or functional assay.
Regarding B1, the “Ratio hCT/hAmylin funct.” value was 26.6 and the “hCTR funct. EC50” value stood at 3.88 nM.
Turning to B2, the “Ratio hCT/hAmylin funct.” value turned out to be 4.9 and the “hCTR funct. EC50” value worked out at 0.345 nM.
Regarding B3, the “Ratio hCT/hAmylin funct.” value amounted to 27.8 and the “hCTR funct. EC50” value was 11.2 nM.
For B4 the same measures were 13.3 and 1.73 nM.
On to B5, for which the “Ratio hCT/hAmylin funct.” value was 64.4 and the “hCTR funct. EC50” value came out at 19.2 nM.
For B6 the same measures were 8.5 and 6.55 nM.
